# Test results from publication PMC12288466, “EzrA promotes Z-ring formation through interaction of its QNR motif with FtsA” (Journal of Bacteriology, 2025).
# B1: cytoplasmic region of EzrA protein of S. suis (domain or fragment, Streptococcus suis, UniProt A4VWI6 27-574, looked up)
# chain: RKRNDNLLVALEERKEELFNLPVNEEVETVKALHLIGQSQVSFREWNQKWVDLSLNSFADIENHIFEAEGYNNAFRFVSAKNAIDSIDSQIDLIEEDIASIRQGLMELKEQEEKNSGRVKHALNLFDSLQEAVRENPDSYGETLSELEKQLKNIEVEFSEFVMLNSSGDPIEASEILDKTEEHMIALNQIMDRIPSLIERVTKDFPEQLEDLESGYRKLVEQNYLFTEANIESQFQNIRVSIRENTALIVSFDLDAAEAENEGIQAKIDHLYKVFNREIEANKEAVKISKNLPKFLEHVVQNTQLLDEESQRLNATYLLADSKLSRINQLKARLESIEIVVTESVEDIENPQVAYSILEERLDHSLASLKEIEEEQLVLADYLKSQELSENTARKKATLYINKLHTLKRYMEKRNLPGIPAEFLTNFFRTSDHVEALIAELDYKRINIEVVNRLLENATYDMNQLEELAYLIVQNATLTEQLLQYSNRYRSFDESVQKAFNRSLSIFEKDFDYQAAFEEISFALETVEPGVTERFVRSYEKTREAIRY
# notes: EzrA of Streptococcus suis, locus SSU05_1509, cytoplasmic region; also called EzrA_(cyto); source: E. coli BL21 (DE3), pET28a, purified (Ni-NTA, SUMO protease cleavage); not shown: His-SUMO, C-terminal, cleaved
# Tests used:
# [1] = molecular target: FtsA of B. subtilis, bacterial two-hybrid fusion (UniProt P28264); test: bacterial two-hybrid, β-galactosidase activity; settings: cultured at 30°C for 16 h; parent: est. 270; read off a plot
# [2] = molecular target: FtsA of E. faecalis, bacterial two-hybrid fusion (UniProt O07111); test: bacterial two-hybrid, β-galactosidase activity; settings: cultured at 30°C for 16 h; parent: est. 42; read off a plot
# [3] = molecular target: FtsA of S. pneumoniae, bacterial two-hybrid fusion (UniProt A0A0H2ZPT5); test: bacterial two-hybrid, β-galactosidase activity; settings: cultured at 30°C for 16 h; parent: est. 110; read off a plot
# [4] = molecular target: FtsA of S. suis, bacterial two-hybrid fusion (UniProt A0A0H3MTL7); test: bacterial two-hybrid, β-galactosidase activity; settings: cultured at 30°C for 16 h; parent: est. 300; read off a plot
# his-tagged FtsA protein [5] = molecular target: T1, his-tagged FtsA protein (Streptococcus suis, UniProt A0A0H3MTL7 1-459); test: SPR; kinetic fit
# T1 chain: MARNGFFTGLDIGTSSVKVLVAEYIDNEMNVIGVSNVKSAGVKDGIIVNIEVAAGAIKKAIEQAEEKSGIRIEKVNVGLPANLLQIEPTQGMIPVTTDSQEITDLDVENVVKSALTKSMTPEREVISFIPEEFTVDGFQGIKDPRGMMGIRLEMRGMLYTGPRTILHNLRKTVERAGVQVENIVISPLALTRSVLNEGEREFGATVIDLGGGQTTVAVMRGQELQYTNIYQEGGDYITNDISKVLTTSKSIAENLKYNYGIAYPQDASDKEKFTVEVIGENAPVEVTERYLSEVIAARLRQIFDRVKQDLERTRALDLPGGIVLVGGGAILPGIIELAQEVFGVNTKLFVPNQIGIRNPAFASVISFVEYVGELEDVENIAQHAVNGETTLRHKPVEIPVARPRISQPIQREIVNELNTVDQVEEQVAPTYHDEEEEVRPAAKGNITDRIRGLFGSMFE
# his-tagged FtsA protein [6] = molecular target: T1, his-tagged FtsA protein; test: SPR; equilibrium (steady-state) fit
# his-tagged FtsA protein [7] = molecular target: T2, his-tagged FtsA protein (Streptococcus suis, UniProt A0A0H3MTL7 1-459); test: SPR; Biacore T200; FtsA covalently immobilised on a CM5 chip (700 RU); EzrA_(cyto) or its variant injected at 200 to 3.125 µM in twofold dilutions, 30 µL/min, 25°C; equilibrium response fitted to a 1:1 binding model; settings: both partners purified
# T2 construct: FtsA of Streptococcus suis, locus SSU05_0480; It was purified 'in the same way but without the SUMO cleavage step'; source: E. coli BL21 (DE3), pET28a, purified (Ni-NTA)
# T2 sequence (looked up): T1 chain
# FtsA of E. faecalis, bacterial two-hybrid fusion, sequence (O07111 whole entry, the tested form may be a part): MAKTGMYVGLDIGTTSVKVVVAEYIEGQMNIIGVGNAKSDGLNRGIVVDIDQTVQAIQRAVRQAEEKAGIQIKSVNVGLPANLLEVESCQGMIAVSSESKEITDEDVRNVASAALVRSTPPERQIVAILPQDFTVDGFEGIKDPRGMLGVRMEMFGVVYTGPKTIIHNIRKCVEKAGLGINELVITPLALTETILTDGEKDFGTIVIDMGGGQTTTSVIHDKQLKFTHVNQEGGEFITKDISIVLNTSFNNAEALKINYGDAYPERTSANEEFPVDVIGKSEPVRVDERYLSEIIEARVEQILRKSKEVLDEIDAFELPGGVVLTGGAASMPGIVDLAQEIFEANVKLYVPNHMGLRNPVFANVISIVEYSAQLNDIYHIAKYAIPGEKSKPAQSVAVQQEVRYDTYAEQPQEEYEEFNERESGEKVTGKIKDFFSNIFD
# FtsA of S. pneumoniae, bacterial two-hybrid fusion, sequence (A0A0H2ZPT5 whole entry, the tested form may be a part): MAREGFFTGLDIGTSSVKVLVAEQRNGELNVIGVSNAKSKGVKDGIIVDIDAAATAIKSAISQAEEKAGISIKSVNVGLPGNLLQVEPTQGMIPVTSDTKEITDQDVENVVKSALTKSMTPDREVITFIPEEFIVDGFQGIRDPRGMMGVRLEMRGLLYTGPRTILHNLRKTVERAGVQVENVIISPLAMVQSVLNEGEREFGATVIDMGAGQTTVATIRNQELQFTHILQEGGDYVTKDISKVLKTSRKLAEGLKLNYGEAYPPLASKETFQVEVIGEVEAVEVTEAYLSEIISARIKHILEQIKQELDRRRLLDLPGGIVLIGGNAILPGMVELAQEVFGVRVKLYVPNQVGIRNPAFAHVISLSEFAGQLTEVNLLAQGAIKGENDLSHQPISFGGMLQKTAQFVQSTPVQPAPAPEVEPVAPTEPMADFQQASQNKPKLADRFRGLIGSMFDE
# FtsA of B. subtilis, bacterial two-hybrid fusion, sequence (P28264 whole entry, the tested form may be a part): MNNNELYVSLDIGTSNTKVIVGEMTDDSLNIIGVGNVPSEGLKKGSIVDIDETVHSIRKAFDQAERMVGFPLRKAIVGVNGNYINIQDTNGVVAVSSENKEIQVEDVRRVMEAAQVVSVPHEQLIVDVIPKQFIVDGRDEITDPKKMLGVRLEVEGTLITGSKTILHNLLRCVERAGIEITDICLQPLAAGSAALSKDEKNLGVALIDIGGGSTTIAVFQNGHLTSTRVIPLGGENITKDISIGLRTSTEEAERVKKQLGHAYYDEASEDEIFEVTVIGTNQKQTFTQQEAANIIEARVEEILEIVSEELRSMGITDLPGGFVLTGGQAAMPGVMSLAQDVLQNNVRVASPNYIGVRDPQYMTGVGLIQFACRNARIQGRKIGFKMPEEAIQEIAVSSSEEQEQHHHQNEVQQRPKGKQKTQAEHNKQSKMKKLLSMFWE
molecule,measurement,setting,value
"EzrA of B. subtilis, bacterial two-hybrid fusion (from UniProt O34894) QND",response,[1],38 rel.U
"EzrA of Enterococcus faecalis, bacterial two-hybrid fusion (from UniProt Q838R5) QND",response,[2],25 rel.U
"EzrA of S. pneumoniae, bacterial two-hybrid fusion R515D",response,[3],21 rel.U
"EzrA of S. suis, bacterial two-hybrid fusion R514D",response,[4],50 rel.U
B1,Kd,his-tagged FtsA protein [5],1.91 nM
same,Kd,his-tagged FtsA protein [6],37.2 nM
same,fold binding affinity against EzrA^R514D,his-tagged FtsA protein [7],≥ 10 fold
